Target: histone H4 (in the nucleosome) (Xenopus laevis, UniProt P62799)
Assay: cryo-EM structure

binding result: binds
B1: DDM1-HELLS chimeric protein (DDM1^HELLS) (enzyme)
chain: MVSLRSRKVIPASEMVSDGKTEKDASGDSPTSVLNEEENCEEKSVTVVEEEILLAKNGDSSLISEAMAQEEEQLLKLREDEEKANNAGSAVAPNLNETQFTKLDELLTQTQLYSEFLLEKMEDITINGIESESQKAEPEKTGRGRKRKAASQYNNTKAKRAVAAMISRSKEDGETINSDLTEEETVIKLQNELCPLLTGGQLKSYQLKGVKWLISLWQNGLNGILADQMGLGKTIQTIGFLSHLKGNGLDGPYLVIAPLSTLSNWFNEIARFTPSINAIIYHGDKNQRDELRRKHMPKTVGPKFPIVITSYEVAMNDAKRILRHYPWKYVVIDEGHRLKNHKCKLLRELKHLKMDNKLLLTGTPLQNNLSELWSLLNFILPDIFTSHDEFESWFDFSEKNKNEATKEEEEKRRAQVVSKLHGILRPFILRRMKCDVELSLPRKKEIIMYATMTDHQKKFQEHLVNNTLEAHLGENAIRGIELSPTGRPKRRTRKSINYSKIDDFPNELEKLISQIQPEVDRERAVVEVNIPVEQGWKGKLNNLVIQLRKNCNHPDLLQGQIDGSYLYPPVEEIVGQCGKFRLLERLLVRLFANNHKVLIFSQWTKLLDIMDYYFSEKGFEVCRIDGSVKLDERRRQIKDFSDEKSSCSIFLLSTRAGGLGINLTAADTCILYDSDWNPQMDLQAMDRCHRIGQTKPVHVYRLSTAQSIETRVLKRAYSKLKLEHVVIGQGQFHQERAKSSTPLEEEDILALLKEDETAEDKLIQTDISDADLDRLLDRSDLTITAPGETQAAEAFPVKGPGWEVVLPSSGGMLSSLNS

Reference: publication doi:10.1101/2023.08.09.551721 (bioRxiv, 2023)
